Measurements published in the supplement of paper PMC10567573.

B1: MTMR15 (parent)
chain: FSPDFTLRNTLKSTSEDSLVKQEC
B2: RIPK4 (parent)
chain: RERMELLEEAKKMEMAKFRYILPV

Variants of: B1
Experiment: protein stability index of a GFP-peptide fusion (GPS, HEK-293T) (PSI 1-6); higher = more stable
Conditions: c terminus: a fixed tail appended
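Note: lentivirally expressed fusions sorted by FACS into six bins by GFP to DsRed ratio, PSI derived from sequencing read proportions per bin multiplied by bin number.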

Variant | protein stability index
F1T | 5.28
F1A | 3.9
F1P | 5.1
F1S | 4.81
F1R | 4.98
F1G | 5.09
F1Q | 4.96
F1W | 4.39
F1K | 5
F1N | 5.19
F1D | 5.25
F1M | 4.87
F1V | 4.83
F1L | 5.21
F1I | 4.71
F1H | 4.96
F1C | 4.17
F1Y | 2.04
F1E | 5.32
F5G | 1.99
F5A | 3.75
F5H | 3.52
F5D | 4.35

Variant | protein stability index
F5T | 3.17
F5M | 3.62
F5W | 3.6
F5R | 3.26
F5K | 3.79
F5C | 3.42
F5S | 3.19
F5Y | 2.61
F5I | 3.65
F5E | 4.83
F5L | 3.54
F5V | 3.56
F5Q | 3.5
F5N | 3.82
F5P | 3.59
T6P | 1.92
T6F | 1.84
T6A | 1.72
T6E | 3.39
T6L | 2.8
T6W | 1.84
T6I | 3.13
T6N | 1.77

Variant | protein stability index
T6M | 1.92
T6D | 2.7
T6C | 2.73
T6R | 1.77
T6Q | 2.24
T6K | 2.01
T6V | 1.82
T6S | 2.27
T6H | 1.45
T6G | 2.63
T6Y | 2.46
P3N | 3.08
P3H | 3.05
P3K | 2.26
P3G | 2.27
P3F | 2.83
P3W | 1.97
P3D | 3.91
P3T | 2.76
P3S | 2.67
P3I | 2.44
P3M | 1.99
P3R | 1.98

Variant | protein stability index
P3A | 1.97
P3L | 2.24
P3E | 3.14
P3V | 2.58
P3Q | 2.83
P3Y | 2.76
P3C | 2.64
N9F | 2.7
N9G | 1.93
N9A | 1.67
N9D | 1.54
N9H | 1.57
N9C | 2.35
N9E | 1.72
S2R | 4.02
S2C | 2.19
S2M | 3.69
S2V | 2.88
S2D | 5
S2L | 3.19
S2I | 1.92
S2T | 2.23
S2W | 3.6

Variant | protein stability index
S2Y | 4.52
S2K | 4.27
S2P | 2.9
S2G | 2.48
S2H | 2.55
S2E | 4.8
S2F | 4.04
S2A | 2.08
S2N | 3.68
S2Q | 3.32
D4T | 2.07
D4M | 1.61
D4L | 1.94
D4K | 2.23
D4Q | 1.45
D4Y | 3.03
D4P | 4
D4F | 1.53
D4V | 2.01
D4S | 1.9
D4E | 1.94
D4H | 1.95
D4G | 2.65

Variant | protein stability index
D4I | 2.05
D4W | 1.96
D4A | 2.44
D4C | 1.78
D4R | 2.65
D4N | 2.23
L7Q | 2.16
L7P | 2.54
L7R | 2.56
L7E | 2.99
L7G | 2.48
L7I | 2.3
L7V | 1.83
L7N | 1.91
L7H | 2.15
L7T | 2.75
L7F | 2.04
L7K | 2.39
L7M | 3.06
L7Y | 2.27
L7C | 2.25
L7S | 2.08
L7W | 2.16

Variant | protein stability index
L7D | 3.03
L7A | 1.99
R8Q | 2.62
R8F | 1.89
R8N | 1.58
R8A | 2.01
R8S | 1.9
R8M | 1.77
R8E | 3.28
R8I | 2.88
R8K | 1.7
R8H | 1.89
R8Y | 2.44
R8V | 2.14
R8G | 1.79
R8C | 2.75
R8T | 1.73
R8D | 2.68
R8P | 2.67
R8L | 2.36
R8W | 2.17

Variants of: B2
Experiment: as above
Conditions: c terminus: a fixed tail appended

Variant | protein stability index
V24E | 4.32
V24F | 3.16
V24T | 3.78
V24R | 3.65
V24M | 3.68
V24K | 3.58
V24H | 3.24
V24S | 3.7
